B1: Zinc finger protein 581 (Homo sapiens), Q9P0T4 (parent)
chain: MLVLPSPCPQPLAFSSVETMEGPPRRTCRSPEPGPSSSIGSPQASSPPRPNHYLLIDTQGVPYTVLVDEESQREPGASGAPGQKKCYSCPVCSRVFEYMSYLQRHSITHSEVKPFECDICGKAFKRASHLARHHSIHLAGGGRPHGCPLCPRRFRDAGELAQHSRVHSGERPFQCPHCPRRFMEQNTLQKHTRWKHP
B2: Leucine rich adaptor protein 1 (Homo sapiens), Q96LR2 (parent)
chain: MEGTVESQTPDLRDVEGKVGRKTPEGLLRGLRGECELGTSGALLLPGASSTGHDLGDKIMALKMELAYLRAIDVKILQQLVTLNEGIEAVRWLLEERGTLTSHCSSLTSSQYSLTGGSPGRSRRGSWDSLPDTSTTDRLDSVSIGSFLDTVAPSELDEQGPPGAPRSEMDWAKVIAGGERARTEVDVAATRLGSLRAVWKPPGERLQGGPPESPEDESAKLGFEAHWFWEQCQDDVTFL
partner: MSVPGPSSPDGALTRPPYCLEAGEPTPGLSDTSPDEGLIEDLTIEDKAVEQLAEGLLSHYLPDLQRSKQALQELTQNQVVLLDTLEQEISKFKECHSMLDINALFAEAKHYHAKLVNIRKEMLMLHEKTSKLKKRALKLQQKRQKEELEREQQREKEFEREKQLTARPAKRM
B3: Protein FAM9B (Homo sapiens), Q8IZU0 (parent)
chain: MAAWGKKHAGKDPVRDECEERNRFTETREEDVTDEHGEREPFAETDEHTGANTKKPEDTAEDLTAKRKRMKMDKTCSKTKNKSKHALRKKQLKRQKRDYIHSLKLLNVLEEYITDEQKEEEEEEGEEEELIRIFQEQQKKWQQYRSVRRERLKEMKLLRDQFVKALEDFEDLCDRVFSDEDSELDN
partner: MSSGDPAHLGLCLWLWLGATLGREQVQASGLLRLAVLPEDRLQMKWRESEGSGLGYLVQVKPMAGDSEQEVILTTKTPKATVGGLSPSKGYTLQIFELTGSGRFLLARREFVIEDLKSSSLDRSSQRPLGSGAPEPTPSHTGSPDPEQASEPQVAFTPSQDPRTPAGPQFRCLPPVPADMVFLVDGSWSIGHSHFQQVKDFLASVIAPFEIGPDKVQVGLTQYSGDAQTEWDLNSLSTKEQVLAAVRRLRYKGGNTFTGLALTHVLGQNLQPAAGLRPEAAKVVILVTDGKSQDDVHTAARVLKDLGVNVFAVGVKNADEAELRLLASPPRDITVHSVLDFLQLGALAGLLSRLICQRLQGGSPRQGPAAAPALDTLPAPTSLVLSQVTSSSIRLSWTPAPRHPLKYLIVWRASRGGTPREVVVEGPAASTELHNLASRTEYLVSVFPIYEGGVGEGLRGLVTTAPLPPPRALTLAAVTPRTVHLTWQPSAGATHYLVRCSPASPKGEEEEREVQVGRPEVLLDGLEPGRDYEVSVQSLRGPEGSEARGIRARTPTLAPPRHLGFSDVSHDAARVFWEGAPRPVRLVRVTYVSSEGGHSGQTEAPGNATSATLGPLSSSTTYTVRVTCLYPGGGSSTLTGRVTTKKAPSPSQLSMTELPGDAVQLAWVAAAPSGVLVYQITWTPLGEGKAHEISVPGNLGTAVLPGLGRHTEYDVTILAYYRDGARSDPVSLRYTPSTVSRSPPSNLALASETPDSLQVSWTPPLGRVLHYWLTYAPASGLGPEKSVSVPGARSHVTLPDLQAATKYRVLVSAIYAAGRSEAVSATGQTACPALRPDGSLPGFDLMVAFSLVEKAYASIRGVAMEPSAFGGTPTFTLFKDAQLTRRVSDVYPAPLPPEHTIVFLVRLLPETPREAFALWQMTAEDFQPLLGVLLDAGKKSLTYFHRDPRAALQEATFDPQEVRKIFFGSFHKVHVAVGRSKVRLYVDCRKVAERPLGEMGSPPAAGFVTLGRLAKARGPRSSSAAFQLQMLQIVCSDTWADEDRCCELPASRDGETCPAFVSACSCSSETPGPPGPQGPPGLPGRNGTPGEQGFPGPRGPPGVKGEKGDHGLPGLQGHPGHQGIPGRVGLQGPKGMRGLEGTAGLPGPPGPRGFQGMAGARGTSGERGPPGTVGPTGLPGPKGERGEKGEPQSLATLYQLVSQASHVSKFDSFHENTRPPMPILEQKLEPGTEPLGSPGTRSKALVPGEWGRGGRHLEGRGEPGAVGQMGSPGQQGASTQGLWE
B4: Isoform 1 of Myotubularin-related protein 9 (Homo sapiens), Q96QG7-1 (parent)
chain: MEFAELIKTPRVDNVVLHRPFYPAVEGTLCLTGHHLILSSRQDNTEELWLLHSNIDAIDKRFVGSLGTIIIKCKDFRIIQLDIPGMEECLNIASSIEALSTLDSITLMYPFFYRPMFEVIEDGWHSFLPEQEFELYSSATSEWRLSYVNKEFAVCPSYPPIVTVPKSIDDEALRKVATFRHGGRFPVLSYYHKKNGMVIMRSGQPLTGTNGRRCKEDEKLINATLRAGKRGYIIDTRSLNVAQQTRAKGGGFEQEAHYPQWRRIHKSIERYHILQESLIKLVEACNDQTHNMDRWLSKLEASNWLTHIKEILTTACLAAQCIDREGASILIHGTEGTDSTLQVTSLAQIILEPRSRTIRGFEALIEREWLQAGHPFQQRCAQSAYCNTKQKWEAPVFLLFLDCVWQILRQFPCSFEFNENFLIMLFEHAYASQFGTFLGNNESERCKLKLQQKTMSLWSWVNQPSELSKFTNPLFEANNLVIWPSVAPQSLPLWEGIFLRWNRSSKYLDEAYEEMVNIIEYNKELQAKVNILRRQLAELETEDGMQESP
partner: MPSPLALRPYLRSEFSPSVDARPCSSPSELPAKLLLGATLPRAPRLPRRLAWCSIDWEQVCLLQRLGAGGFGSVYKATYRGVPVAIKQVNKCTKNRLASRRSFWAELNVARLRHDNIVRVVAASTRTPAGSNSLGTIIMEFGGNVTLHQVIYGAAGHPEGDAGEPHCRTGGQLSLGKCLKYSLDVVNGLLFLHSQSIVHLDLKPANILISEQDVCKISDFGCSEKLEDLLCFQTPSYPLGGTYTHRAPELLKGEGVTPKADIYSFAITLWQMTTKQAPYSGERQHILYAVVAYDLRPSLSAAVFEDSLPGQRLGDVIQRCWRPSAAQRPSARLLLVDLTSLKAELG
B5: Glycine N-methyltransferase (Homo sapiens), Q14749 (parent)
chain: MVDSVYRTRSLGVAAEGLPDQYADGEAARVWQLYIGDTRSRTAEYKAWLLGLLRQHGCQRVLDVACGTGVDSIMLVEEGFSVTSVDASDKMLKYALKERWNRRHEPAFDKWVIEEANWMTLDKDVPQSAEGGFDAVICLGNSFAHLPDCKGDQSEHRLALKNIASMVRAGGLLVIDHRNYDHILSTGCAPPGKNIYYKSDLTKDVTTSVLIVNNKAHMVTLDYTVQVPGAGQDGSPGLSKFRLSYYPHCLASFTELLQAAFGGKCQHSVLGDFKPYKPGQTYIPCYFIHVLKRTD
B6: Iron-sulfur cluster co-chaperone protein HscB (Homo sapiens), Q8IWL3 (parent)
chain: MWRGRAGALLRVWGFWPTGVPRRRPLSCDAASQAGSNYPRCWNCGGPWGPGREDRFFCPQCRALQAPDPTRDYFSLMDCNRSFRVDTAKLQHRYQQLQRLVHPDFFSQRSQTEKDFSEKHSTLVNDAYKTLLAPLSRGLYLLKLHGIEIPERTDYEMDRQFLIEIMEINEKLAEAESEAAMKEIESIVKAKQKEFTDNVSSAFEQDDFEEAKEILTKMRYFSNIEEKIKLKKIPL
B7: Methylmalonyl-CoA epimerase, mitochondrial (Homo sapiens), Q96PE7 (parent)
chain: MARVLKAAAANAVGLFSRLQAPIPTVRASSTSQPLDQVTGSVWNLGRLNHVAIAVPDLEKAAAFYKNILGAQVSEAVPLPEHGVSVVFVNLGNTKMELLHPLGRDSPIAGFLQKNKAGGMHHICIEVDNINAAVMDLKKKKIRSLSEEVKIGAHGKPVIFLHPKDCGGVLVELEQA
partner: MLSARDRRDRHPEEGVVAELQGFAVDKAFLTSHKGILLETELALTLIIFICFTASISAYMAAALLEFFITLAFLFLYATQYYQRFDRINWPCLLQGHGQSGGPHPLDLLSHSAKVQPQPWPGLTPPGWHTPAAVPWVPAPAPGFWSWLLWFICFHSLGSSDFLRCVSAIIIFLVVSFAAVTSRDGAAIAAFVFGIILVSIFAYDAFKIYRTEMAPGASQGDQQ

The first test covers variants of B1. The following applies: with cc136_human CCDC136, Q96JN2.
Chain of cc136_human CCDC136, Q96JN2 (Q96JN2 whole entry): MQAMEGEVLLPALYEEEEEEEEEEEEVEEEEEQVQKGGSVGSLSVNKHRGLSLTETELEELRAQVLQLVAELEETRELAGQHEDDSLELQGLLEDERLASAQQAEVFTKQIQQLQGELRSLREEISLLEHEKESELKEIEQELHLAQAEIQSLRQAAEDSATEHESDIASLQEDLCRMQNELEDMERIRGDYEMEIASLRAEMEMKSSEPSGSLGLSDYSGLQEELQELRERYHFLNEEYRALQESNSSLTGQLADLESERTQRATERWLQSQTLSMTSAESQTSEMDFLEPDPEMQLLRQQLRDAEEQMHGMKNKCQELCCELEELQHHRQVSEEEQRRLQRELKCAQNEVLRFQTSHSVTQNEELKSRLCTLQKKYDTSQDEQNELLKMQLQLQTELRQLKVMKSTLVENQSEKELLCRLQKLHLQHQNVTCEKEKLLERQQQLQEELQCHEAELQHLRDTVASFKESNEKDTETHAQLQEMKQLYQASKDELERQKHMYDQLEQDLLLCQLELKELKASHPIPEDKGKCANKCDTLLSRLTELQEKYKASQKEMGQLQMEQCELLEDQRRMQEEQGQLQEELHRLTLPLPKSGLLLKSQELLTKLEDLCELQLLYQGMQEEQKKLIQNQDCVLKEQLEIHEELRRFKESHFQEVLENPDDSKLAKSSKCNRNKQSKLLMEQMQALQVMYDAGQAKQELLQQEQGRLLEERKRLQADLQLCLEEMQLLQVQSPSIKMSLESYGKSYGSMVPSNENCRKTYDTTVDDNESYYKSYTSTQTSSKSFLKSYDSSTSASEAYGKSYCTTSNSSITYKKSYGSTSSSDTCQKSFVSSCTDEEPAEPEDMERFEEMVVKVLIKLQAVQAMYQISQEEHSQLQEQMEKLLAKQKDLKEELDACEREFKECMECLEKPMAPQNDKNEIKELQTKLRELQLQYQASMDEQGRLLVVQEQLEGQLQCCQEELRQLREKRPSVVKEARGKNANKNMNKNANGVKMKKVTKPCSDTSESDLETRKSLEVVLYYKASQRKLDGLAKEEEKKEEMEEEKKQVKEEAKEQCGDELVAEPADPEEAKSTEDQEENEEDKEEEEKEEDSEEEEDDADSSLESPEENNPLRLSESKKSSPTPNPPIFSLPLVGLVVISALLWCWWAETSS
Take E32A: the “effect of a mutation on the interaction” value is recorded as “with no effect”.

A further test covers variants of B1. As to conditions: with mtus2_human MTUS2, Q5JR59.
Chain of mtus2_human MTUS2, Q5JR59 (Q5JR59 whole entry): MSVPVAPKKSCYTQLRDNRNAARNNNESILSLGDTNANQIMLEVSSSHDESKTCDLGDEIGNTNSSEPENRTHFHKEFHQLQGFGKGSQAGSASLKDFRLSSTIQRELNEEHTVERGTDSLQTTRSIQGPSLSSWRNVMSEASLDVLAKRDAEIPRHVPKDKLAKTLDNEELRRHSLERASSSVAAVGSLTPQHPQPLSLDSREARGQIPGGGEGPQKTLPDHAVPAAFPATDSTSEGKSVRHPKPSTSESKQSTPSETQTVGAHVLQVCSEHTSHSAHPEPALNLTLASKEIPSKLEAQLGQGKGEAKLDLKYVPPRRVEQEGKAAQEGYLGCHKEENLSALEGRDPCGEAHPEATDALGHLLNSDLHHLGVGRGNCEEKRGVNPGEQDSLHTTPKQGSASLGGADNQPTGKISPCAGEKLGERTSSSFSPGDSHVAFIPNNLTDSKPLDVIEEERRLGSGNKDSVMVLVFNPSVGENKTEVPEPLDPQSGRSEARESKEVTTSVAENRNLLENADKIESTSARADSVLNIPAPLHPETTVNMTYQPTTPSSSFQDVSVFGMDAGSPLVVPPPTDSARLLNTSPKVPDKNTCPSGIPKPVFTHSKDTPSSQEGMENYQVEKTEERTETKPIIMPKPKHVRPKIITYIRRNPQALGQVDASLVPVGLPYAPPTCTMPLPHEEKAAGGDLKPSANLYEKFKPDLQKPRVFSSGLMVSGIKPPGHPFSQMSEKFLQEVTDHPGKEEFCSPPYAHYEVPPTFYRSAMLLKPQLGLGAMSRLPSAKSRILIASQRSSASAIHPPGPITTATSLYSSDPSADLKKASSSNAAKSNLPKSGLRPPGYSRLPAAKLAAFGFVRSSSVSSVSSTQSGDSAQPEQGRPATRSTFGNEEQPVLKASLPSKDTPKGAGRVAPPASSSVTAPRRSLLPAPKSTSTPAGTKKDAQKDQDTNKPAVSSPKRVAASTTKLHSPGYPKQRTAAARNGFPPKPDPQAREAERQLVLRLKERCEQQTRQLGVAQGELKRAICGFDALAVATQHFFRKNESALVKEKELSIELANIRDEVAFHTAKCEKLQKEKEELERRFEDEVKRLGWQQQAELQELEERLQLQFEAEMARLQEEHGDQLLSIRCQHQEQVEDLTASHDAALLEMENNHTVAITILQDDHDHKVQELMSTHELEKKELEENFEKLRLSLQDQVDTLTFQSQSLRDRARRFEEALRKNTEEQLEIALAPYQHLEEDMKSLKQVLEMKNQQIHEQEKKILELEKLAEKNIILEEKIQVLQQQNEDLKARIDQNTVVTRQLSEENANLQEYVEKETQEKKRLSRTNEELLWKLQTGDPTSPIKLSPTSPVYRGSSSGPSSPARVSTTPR
Take E32A: the “effect of a mutation on the interaction” value is “with no effect”.

The variants in the next test derive from B1. The following applies: with tri23_human TRIM23, P36406.
Chain of tri23_human TRIM23, P36406 (P36406 whole entry): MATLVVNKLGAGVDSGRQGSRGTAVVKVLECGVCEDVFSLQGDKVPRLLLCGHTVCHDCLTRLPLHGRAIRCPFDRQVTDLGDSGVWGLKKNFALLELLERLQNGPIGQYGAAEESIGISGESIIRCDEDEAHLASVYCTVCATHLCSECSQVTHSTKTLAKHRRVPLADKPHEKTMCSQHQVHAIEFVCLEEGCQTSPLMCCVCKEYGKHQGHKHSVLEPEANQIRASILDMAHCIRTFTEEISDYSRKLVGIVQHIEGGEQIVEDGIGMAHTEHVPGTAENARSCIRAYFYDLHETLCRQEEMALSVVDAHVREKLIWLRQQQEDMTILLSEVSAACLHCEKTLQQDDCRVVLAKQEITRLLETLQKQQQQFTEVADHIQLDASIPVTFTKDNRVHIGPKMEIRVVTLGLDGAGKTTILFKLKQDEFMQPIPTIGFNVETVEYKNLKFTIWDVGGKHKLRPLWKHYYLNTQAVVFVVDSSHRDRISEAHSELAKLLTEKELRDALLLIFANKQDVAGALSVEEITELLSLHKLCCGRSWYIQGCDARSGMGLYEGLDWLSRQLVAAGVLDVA
Turning to E32A, the “effect of a mutation on the interaction” value was “with no effect”.

Variants of B2 are the subject of the next test. As to conditions: with bl1s6_human BLOC1S6, Q9UL45.
On to M60L, for which the “effect of a mutation on the interaction” value is “with no effect”. With Q207R, the “effect of a mutation on the interaction” value is on record as “disrupting interaction strength”.

The variants in another test derive from B3. As to conditions: with coka1_human COL20A1, Q9P218.
In the case of R23H, the “effect of a mutation on the interaction” value is “with no effect”.

The variants in the next test derive from B4. As to conditions: with mos_human MOS.
Turning to F127I, the “effect of a mutation on the interaction” value is “with no effect”.

The next test covers variants of B4. The following applies: with mos_human MOS. This is another data set of the same source.
S126C: the “effect of a mutation on the interaction” value was “with no effect”.

The next test covers variants of B5. As to conditions: with ntaq1_human NTAQ1, Q96HA8.
In the case of I211T, the “effect of a mutation on the interaction” value was “with no effect”.

Another test covers variants of B5. As to conditions: with arrc_human ARR3, P36575.
Chain of arrc_human ARR3, P36575 (P36575 whole entry): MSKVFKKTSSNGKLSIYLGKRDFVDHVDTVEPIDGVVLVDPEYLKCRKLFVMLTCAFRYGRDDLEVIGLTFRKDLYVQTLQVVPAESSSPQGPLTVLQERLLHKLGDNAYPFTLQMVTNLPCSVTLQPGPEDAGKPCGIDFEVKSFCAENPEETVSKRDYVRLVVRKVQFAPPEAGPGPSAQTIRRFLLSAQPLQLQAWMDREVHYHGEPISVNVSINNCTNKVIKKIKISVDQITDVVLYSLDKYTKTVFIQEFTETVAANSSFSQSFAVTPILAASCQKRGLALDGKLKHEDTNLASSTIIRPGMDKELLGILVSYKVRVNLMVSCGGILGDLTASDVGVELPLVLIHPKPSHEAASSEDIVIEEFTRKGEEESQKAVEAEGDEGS
For the variant I211T, the “effect of a mutation on the interaction” value was “disrupting interaction strength”.

The variants in the next test derive from B5. As to conditions: with arrb1_human ARRB1, P49407.
Chain of arrb1_human ARRB1, P49407 (P49407 whole entry): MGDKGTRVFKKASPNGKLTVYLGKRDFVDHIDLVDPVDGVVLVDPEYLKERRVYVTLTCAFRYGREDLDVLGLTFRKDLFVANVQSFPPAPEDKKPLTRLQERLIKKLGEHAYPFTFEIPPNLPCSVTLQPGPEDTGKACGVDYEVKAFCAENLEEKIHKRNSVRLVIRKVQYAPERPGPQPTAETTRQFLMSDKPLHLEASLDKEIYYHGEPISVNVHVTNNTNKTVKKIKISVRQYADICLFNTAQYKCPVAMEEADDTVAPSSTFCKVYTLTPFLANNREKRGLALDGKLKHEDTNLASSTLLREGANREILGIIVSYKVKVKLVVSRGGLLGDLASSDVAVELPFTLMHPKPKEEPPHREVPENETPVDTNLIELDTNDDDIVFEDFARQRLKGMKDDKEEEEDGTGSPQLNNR
I211T: the “effect of a mutation on the interaction” value was “disrupting interaction strength”.

In another test the parent is B6. The following applies: with atrap_human AGTRAP.
On to I163M, for which the “effect of a mutation on the interaction” value is recorded as “disrupting interaction strength”.

The next test covers variants of B7. As to conditions: with cklf5_human CMTM5, Q96DZ9.
Turning to R143H, the “effect of a mutation on the interaction” value is recorded as “with no effect”. For A76V, the “effect of a mutation on the interaction” value is given as “with no effect”.

The record behind these values is IntAct's records for PubMed 31515488.
